Where no end group is shown, it is not given here.
target: T1, rhodopsin (activation state not stated) (bovine, UniProt P02699 1-348); experiment: ELISA of lysates, OD450 with receptor minus without receptor
T1 construct: whole, on cells; same protein as m1; also called EDTA-washed rhodopsin
Protocol: The methods of Example 7 repeated using rhodopsin screening with a Gt library. To identify the rank order of binding, the lysates were analyzed using ELISA methods in which the secondary antibody was conjugated to HRP. Following addition of the substrate, the microplate was read using a spectrophotometer. The binding is the OD₄₅₀ for wells with receptor—OD₄₅₀ for wells in which no receptor (control wells with empty lipid vesicles).

T1 sequence (P02699 whole entry): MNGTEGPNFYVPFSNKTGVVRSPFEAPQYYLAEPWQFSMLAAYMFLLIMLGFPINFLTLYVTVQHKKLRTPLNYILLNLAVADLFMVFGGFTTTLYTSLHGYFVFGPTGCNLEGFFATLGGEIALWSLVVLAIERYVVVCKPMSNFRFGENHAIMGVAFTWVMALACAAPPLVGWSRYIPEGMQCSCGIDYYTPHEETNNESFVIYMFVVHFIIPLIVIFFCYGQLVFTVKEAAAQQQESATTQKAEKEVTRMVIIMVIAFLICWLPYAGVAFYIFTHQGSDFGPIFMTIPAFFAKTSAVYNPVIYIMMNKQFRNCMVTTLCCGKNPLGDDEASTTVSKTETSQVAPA

| Binder | ELISA [OD450] |
| --- | --- |
| ILENLKDCGLF (peptide, not shown: small tags and cut ends, also: fused to fusion carrier of the lysate via linker, not given here) [L3 ILENLKDCGLF] | 0.839 |
| ICENLKDCGLF (peptide, not shown: small tags and cut ends, cysteine pairing not given here; also: fused to lysate carrier and linker, not given here) [L6 ICENLKDCGLF] | 0.342 |
| MLDNLKDCGLF (peptide, not shown: small tags and cut ends, also: fused to lysate carrier and linker, not given here) [L7 MLDNLKDCGLF] | 0.525 |
| IRDNLKDCGLF (peptide, not shown: small tags and cut ends, also: fused to fusion carrier of the lysate via linker, not given here, second of two rows labelled L10) [L10 IRDNLKDCGLF] | 0.162 |
| IVEILEDCGLF (peptide, not shown: small tags and cut ends, also: fused to fusion carrier of the lysate via linker, not given here) [L33 IVEILEDCGLF] | 1.01 |
| MLDNLKACGLF (peptide, not shown: small tags and cut ends, also: fused to lysate carrier and linker, not given here) [L4 MLDNLKACGLF] | 0.908 |

target: recombinant reconstituted β2 adrenergic receptor; experiment: ELISA of clones panned from the Gs library, reconstituted β2 adrenergic receptor

| Binder | ELISA |
| --- | --- |
| QRIHRRPFKFF (peptide, not shown: small tags and cut ends, not fully specified) [BAR1 QRIHRRPFKFF] | 0.218 |
| QGEHLRQLQLQ (peptide, not shown: small tags and cut ends, not fully specified) [AG2 QGEHLRQLQLQ] | 0.33 |
| RWLHWQYRGRG (peptide, not shown: small tags and cut ends, not fully specified) [AG20 RWLHWQYRGRG] | 0.431 |
| QRLHLRGYEFL (peptide, not shown: small tags and cut ends, not fully specified) [AG13 QRLHLRGYEFL] | 0.054 |
| QWMDLRQHELL (peptide, not shown: small tags and cut ends, not fully specified) [BAR3 QWMDLRQHELL] | 0.185 |
| PCIQLGQYESF (peptide, not shown: small tags and cut ends, not fully specified) [BAR40 PCIQLGQYESF] | 0.028 |
| ERLHRRLFQLH (peptide, not shown: small tags and cut ends, not fully specified) [BAR8 ERLHRRLFQLH] | 0.047 |
| QRMNLGPCGLL (peptide, not shown: small tags and cut ends, not fully specified) [AG18 QRMNLGPCGLL] | 0.155 |
| QRMPLRLFEFL (peptide, not shown: small tags and cut ends, not fully specified) [AG3 QRMPLRLFEFL] | 0.217 |
| QRLRLRKYRLF (peptide, not shown: small tags and cut ends, not fully specified) [BAR31 QRLRLRKYRLF] | 0.026 |
| DRMHLWRFGLL (peptide, not shown: small tags and cut ends, not fully specified) [AG11 DRMHLWRFGLL] | 0.192 |
| QRLRLGPDELF (peptide, not shown: small tags and cut ends, not fully specified) [AG4 QRLRLGPDELF] | 0.291 |
| PRPRLLRFKIP (peptide, not shown: small tags and cut ends, also: fused to carrier via linker, not given here) [AG19 PRPRLLRFKIP] | 0.361 |
| QRMPLRQYELL (peptide, not shown: small tags and cut ends, not fully specified) [AG9 QRMPLRQYELL] | 0.19 |
| QRVHLRQDELL (peptide, not shown: small tags and cut ends, not fully specified) [BAR2 QRVHLRQDELL] | 0.197 |
| NCMKFRSCGLF (peptide, not shown: small tags and cut ends, not fully specified; cysteine pairing not given here) [BAR20 NCMKFRSCGLF] | 0.079 |
| QGMQLRRFKLR (peptide, not shown: small tags and cut ends, not fully specified) [AG1 QGMQLRRFKLR] | 0.435 |

target: T2, light-activated rhodopsin (bovine rod outer segment membranes) (bovine, UniProt P02699 1-348, retinylidene chromophore bound to Lys-296); experiment: LacI display panning, light-activated ROS membranes
T2 construct: whole, on cells; native receptor in membrane fragments immobilised on wells, not intact cells; also called metarhodopsin II; MII
Protocol: For screening of the library by “panning,” rhodopsin receptors prepared according to Example 5 were immobilized directly on Immulon 4 (Dynatech) microtiter wells (0.1-1 μg of protein per well) in cold 35 mM HEPES, pH 7.5, containing 0.1 mM EDTA, 50 mM KCl and 1 mM dithiothreitol (HEK/DTT). After shaking for one hour at 4° C., unbound membrane fragments were washed away with HEK/DTT. The wells were blocked with 100 μl 2% BSA in HEKL (35 mM HEPES; 0.1 mM EDTA; 50 mM KCl; 0.2 M α-lactose; pH 7.5, with 1 mM DTT). For rounds 1 and 2, BSA was used for blocking; in later rounds 1% nonfat dry milk was used. For the first round of panning, about 24 wells of a 96-well plate were used. In subsequent rounds, 8 wells with receptor and 8 wells without receptor were prepared.
The Gt library was thawed (2 mL aliquot) and mixed with 6 mL lysis buffer on ice. Lysis buffer contains 4.25 mL HE (25 mM HEPES: 0.1 mM EDTA; pH 7.5); 1 mL 50% glycerol; 750 μL 10 mg/mL protease-free BSA in HE; 10 μL 0.5 M DTT; and 6.25 μL 0.2 M PMSF. Freshly prepared lysozyme solution (150 μL 10 mg/mL lysozyme in cold HE) was added and the tube was gently inverted several times and incubated on ice for no more than two minutes. The extent of lysis is evidenced by an increase in viscosity that can be observed by noting the slow migration of bubbles to the top of the tube after mixing. Lysis was terminated by mixing in 2 mL 20% lactose and 250 μL 2M KCl. The tube was centrifuged immediately at 13,000×g for 15 minutes at 4° C. and the supernatant transferred to a new tube. A small aliquot of 0.1% (the PRE sample) was saved in a separate, labeled tube. […] Immediately thereafter, the crude bacterial lysate from the peptide library (200 μL) was added to each well and allowed to shake gently for one hour at 4° C. For round 2, this same procedure was followed. In round 3, the amount of lysate used was reduced to 100 μL. In subsequent rounds, the lysate was diluted 1:10 in HEKL/BSA.

T2 sequence (P02699 whole entry, the tested form may be a part): as the sequence (P02699 whole entry) above

| Binder | binding result |
| --- | --- |
| ILTKLTDCGLF (peptide, not shown: small tags and cut ends, also: fused to LacI carrier via linker, letters not given here) [Clone No. 4 (Table IX) ILTKLTDCGLF] | binds |
| MLKNLKDCGMF (peptide, not shown: small tags and cut ends, also: fused to LacI carrier via linker, letters not given here) [Clone No. 24 (Table IX) MLKNLKDCGMF] | binds |
| IRENLEDCGLF (peptide, not shown: small tags and cut ends, also: fused to LacI carrier via linker, letters not given here) [Clone No. 15/28 (Table IX) IRENLEDCGLF] | binds |
| IHASLRDCGLF (peptide, not shown: small tags and cut ends, also: fused to LacI carrier via linker, letters not given here) [Clone No. 11 (Table IX) IHASLRDCGLF] | binds |
| MLENLKDCGLF (peptide, not shown: small tags and cut ends, also: fused to LacI carrier via linker, letters not given here) [Clone No. 18 (Table IX) MLENLKDCGLF] | binds |
| IRETLKDCGLL (peptide, not shown: small tags and cut ends, also: fused to LacI carrier via linker, letters not given here) [Clone No. 19 (Table IX) IRETLKDCGLL] | binds |
| IIDNLKDCGLF (peptide, not shown: small tags and cut ends, also: fused to LacI carrier via linker, letters not given here) [Clone No. 16 (Table IX) IIDNLKDCGLF] | binds |
| MRESLKDCGLF (peptide, not shown: small tags and cut ends, also: fused to LacI carrier via linker, letters not given here) [Clone No. 17 (Table IX) MRESLKDCGLF] | binds |
| LRESLKQCGLF (peptide, not shown: small tags and cut ends, also: fused to LacI carrier via linker, letters not given here) [Clone No. 6 (Table IX) LRESLKQCGLF] | binds |
| VLEDLKSCGLF (peptide, not shown: small tags and cut ends, also: fused to LacI carrier via linker, letters not given here) [Clone No. 23 (Table IX) VLEDLKSCGLF] | binds |
| LLDNIKDCGLF (peptide, not shown: small tags and cut ends, also: fused to LacI carrier via linker, letters not given here) [Clone No. 3 (Table IX) LLDNIKDCGLF] | binds |
| IFLNLKDCGLF (peptide, not shown: small tags and cut ends, also: fused to LacI carrier via linker, letters not given here) [Clone No. 14 (Table IX) IFLNLKDCGLF] | binds |
| ILADVIDCGLF (peptide, not shown: small tags and cut ends, also: fused to LacI carrier via linker, letters not given here) [Clone No. 26 (Table IX) ILADVIDCGLF] | binds |
| MCESLKECGLF (peptide, not shown: small tags and cut ends, cysteine pairing not given here; also: fused to LacI carrier via linker, letters not given here) [Clone No. 27 (Table IX) MCESLKECGLF] | binds |
| ICENLKECGLF (peptide, not shown: small tags and cut ends, cysteine pairing not given here; also: fused to LacI carrier via linker, letters not given here) [Clone No. 10 (Table IX) ICENLKECGLF] | binds |
| IQGVLKDCGLL (peptide, not shown: small tags and cut ends, also: fused to LacI carrier via linker, letters not given here) [Clone No. 9 (Table IX) IQGVLKDCGLL] | binds |

Reference: patent US20040018558A1 (published 2004)
